# Patent US20170015742A1 (published 2017)
# T1: mouse VEGF (PR-1578904) (mouse, UniProt Q00731 205-392)
# T1 construct: also called mVEGF164
# T1 chain: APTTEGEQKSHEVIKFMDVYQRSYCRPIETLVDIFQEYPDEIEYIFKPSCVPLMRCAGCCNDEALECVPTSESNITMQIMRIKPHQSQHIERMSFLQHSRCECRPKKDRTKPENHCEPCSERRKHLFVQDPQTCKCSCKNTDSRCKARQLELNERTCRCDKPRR
# B1: AB014 (Avastin), PR-1545939 (antibody, V domains shown)
# VH: EVQLVESGGGLVQPGGSLRLSCAASGYTFTNYGMNWVRQAPGKGLEWVGWINTYTGEPTYAADFKRRFTFSLDTSKSTAYLQMNSLRAEDTAVYYCAKYPHYYGSSHWYFDVWGQGTLVTVSS
# VL: DIQMTQSPSSLSASVGDRVTITCSASQDISNYLNWYQQKPGKAPKVLIYFTSSLHSGVPSRFSGSGSGTDFTLTISSLQPEDFATYYCQQYSTVPWTFGQGTKVEIK
# notes: Anti-VEGF-A mAb
# B2: BCU-6B1-G6 (antibody, V domains shown)
# VH: QIQLVQSGPELKKPGESVKISCKASGYTFTNYGMYWVKQAPGQALQFMGWINTETGQPTYADDFKGRFVFFLETSASTAYLQINNLKNEDMATYFCARLGNNYGIWFAYWGQGTLVTVSS
# VL: DIQMTQSPASLSASLGETVTIECRASDDLYSTLAWYQQKPGDSPQLLIFDANRLAAGVPSRFSGSGSGTQYSLKINSLQSEDVASYFCQQYNKFPWTFGGGTKLELK
# notes: Rat hybridoma anti-human VEGFR II monoclonal antibody, isotype IgG2a/κ
# B3: chBCU-6B1-G6 (antibody, V domains shown)
# VH: QIQLVQSGPELKKPGESVKISCKASGYTFTNYGMYWVKQAPGQALQFMGWINTETGQPTYADDFKGRFVFFLETSASTAYLQINNLKNEDMATYFCARLGNNYGIWFAYWGQGTLVTVSS
# VL: DIQMTQSPASLSASLGETVTIECRASDDLYSTLAWYQQKPGDSPQLLIFDANRLAAGVPSRFSGSGSGTQYSLKINSLQSEDVASYFCQQYNKFPWTFGGGTKLELK
# notes: also called chimeric BCU-6B1-G6
# B4: BDE-8H6-F7 (antibody, V domains shown)
# VH: EVQLVESGGGLVQPGSSLKLSCLASGFTFSNYNMYWIRQAPKKGLEWIALIFYDNNNKYYADSVKGRFTISRDNSKNTLYLEMNSLRSEDTAMYYCLRDSGPFSYWGQGTLVTVSS
# VL: DIQMTQSPPSLSASLGDKVTINCQAGQNIKKYIAWYQQEPGKVPRLLIRYTSKLESDTPSRFSGSGSGRDYSFSISNVESEDIASYYCLQYDNLPWTFGGGTKLELK
# notes: Rat hybridoma anti-human PDGFR-B monoclonal antibody
# Experiments:
# mouse VEGF (PR-1578904) = target: T1, mouse VEGF (PR-1578904); test: SPR (Biacore), mAb captured by anti-human Fc, antigen injected
# Method: Unreacted moieties on the biosensor surface were blocked with ethanolamine. For kinetic analysis, rate equations derived from the 1:1 Langmuir binding model were fitted simultaneously to multiple antigen injections (using global fit analysis) with the use of Scrubber 2 (BioLogic Software), Biacore Biaevaluation 4.0.1 software or Biacore T100 Evaluation software. Purified antibodies or DVD-Ig molecules were diluted in running buffer for capture across goat anti-human Fc reaction surfaces. Antibodies or DVD-Ig molecules to be captured as a ligand (1 μg/ml) were injected over reaction matrices at a flow rate of 10 μl/minute. During the assay, all measurements were referenced against the capture surface alone (i.e., with no captured antibody or DVD-Ig molecule). […] The equilibrium dissociation constant KD (M) of the reaction between antibodies and the target antigen was then calculated from the kinetic rate constants by the following formula: KD=Koff/Kₒₙ. Binding was recorded as a function of time and kinetic rate constants were calculated. In this assay, on-rates as fast as 10⁶M⁻¹s⁻¹ and off-rates as slow as 10⁻⁶ s⁻¹ could be measured.
# [1] = target: T2, recombinant mouse VEGF-R2-Fc (R&D Systems cat#443-KD) (mouse, UniProt P35918 20-762); test: competition ELISA: antibody on coated mVEGFR2-Fc against mVEGF164 (Example 1.25)
# T2 construct: Bought reagent; also called mVEGFR2-Fc; mVEGF-R2; not shown: Fc part of the bought fusion protein
# [2] = target: T3, recombinant human VEGF-R2-Fc (R&D Systems cat#357-KD) (human, UniProt P35968 20-764); test: competition ELISA: antibody on coated hVEGFR2-Fc against biotinylated hVEGF165 (Example 1.23)
# T3 construct: Bought reagent; also called hVEGFR2-Fc; hVEGF-R2 (KDR/Flk-1); not shown: Fc part of the bought fusion protein
# Method: (§1) To identify molecules which could block the binding of VEGF-R2 (KDR/Flk-1) to hVEGF₁₆₅, a competition ELISA was performed. […] Plates were then washed four times with wash buffer (TBS, 0.05% Tween-20) and blocked with Superblock blocking buffer (Thermo Scientific, cat#37535). […] The samples were added to wells and incubated for 30 minutes at 25° C. with shaking. […] Following incubation, plates were washed four times with wash buffer. Streptavidin-polyHRP-40 (Fitzgerald cat#65r-s104phrp) was diluted in assay diluent (10% Superblock containing 0.05% surfactamps) and added to plates (50 μL) for 45 minutes at 25° C. with shaking. Plates were washed four times with wash buffer and developed with the addition of Enhanced K-blue TMB substrate (Neogen cat#308177). The reaction was stopped with 2N sulfuric acid (VWR, cat# BDH3500-1) and the absorbance was read at 450 nm-570 nm. A decrease in observed optical density indicates the test molecule is blocking the human VEGF-R2-Fc binding to hVEGF₁₆₅. Data was analyzed using Softmax Pro 4.8 software and IC₅₀ values calculated using a sigmoidal dose response (variable slope) fit in GraphPad Prism 5.
# [3] = target: T4, recombinant human VEGF-R2-Fc (human, UniProt P35968 20-764); test: competition ELISA: antibody added to coated hVEGF-R2-Fc, then biotin-hVEGF165
# T4 construct: also called hVEGFR2-Fc; KDR/Flk-1; not shown: Fc part of the bought fusion protein
# Method: as §1
# [4] = target: T5, recombinant human PDGF-Rβ-Fc (R&D Systems #385-PR) (human, UniProt P09619 33-530); test: direct ELISA on coated recombinant human PDGF-Rβ-Fc (Example 1.26)
# T5 construct: Bought reagent; also called hPDGFRβ-Fc; huPDGF Rβ; not shown: Fc part of the bought fusion protein
# Method: Plates were then washed four times with wash buffer (TBS, 0.05% Tween-20) and blocked with Superblock blocking buffer (Thermo Scientific, cat#37535). During the blocking step, supernatants, antibodies and benchmark compounds were diluted in assay diluent (10% Superblock containing 0.05% surfactamps) and an eight point titration of each sample molecule was performed. […] Following incubation, plates were washed four times with wash buffer. […] Plates were washed four times with wash buffer and developed with the addition of Enhanced K-blue TMB substrate (Neogen, cat#308177). The reaction was stopped with 2N sulfuric acid (VWR, cat# BDH3500-1) and the absorbance was read at 450 nm-570 nm. […] Data was analyzed using Softmax Pro 4.8 software and IC₅₀ values calculated using a sigmoidal dose response (variable slope) fit in GraphPad Prism 5.
# T2 sequence (P35918 20-762 limits assumed): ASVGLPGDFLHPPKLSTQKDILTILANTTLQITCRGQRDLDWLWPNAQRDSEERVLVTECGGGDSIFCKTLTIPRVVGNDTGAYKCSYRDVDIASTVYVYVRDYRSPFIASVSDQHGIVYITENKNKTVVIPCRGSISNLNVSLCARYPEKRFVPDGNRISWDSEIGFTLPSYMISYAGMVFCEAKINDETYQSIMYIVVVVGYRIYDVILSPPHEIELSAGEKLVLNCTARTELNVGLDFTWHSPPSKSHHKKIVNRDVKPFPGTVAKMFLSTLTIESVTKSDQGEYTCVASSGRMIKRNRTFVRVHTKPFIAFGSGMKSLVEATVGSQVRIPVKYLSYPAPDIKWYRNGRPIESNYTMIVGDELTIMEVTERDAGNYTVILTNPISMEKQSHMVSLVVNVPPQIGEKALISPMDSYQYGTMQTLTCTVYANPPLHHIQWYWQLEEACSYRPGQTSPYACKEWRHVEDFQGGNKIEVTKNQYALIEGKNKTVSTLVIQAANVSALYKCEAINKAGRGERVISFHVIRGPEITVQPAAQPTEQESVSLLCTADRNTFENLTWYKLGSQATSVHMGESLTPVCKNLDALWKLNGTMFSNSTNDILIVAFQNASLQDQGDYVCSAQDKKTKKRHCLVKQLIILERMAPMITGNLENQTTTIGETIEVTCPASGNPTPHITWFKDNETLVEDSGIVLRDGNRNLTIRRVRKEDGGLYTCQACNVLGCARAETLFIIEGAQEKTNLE
# T5 sequence (P09619 33-530 limits assumed): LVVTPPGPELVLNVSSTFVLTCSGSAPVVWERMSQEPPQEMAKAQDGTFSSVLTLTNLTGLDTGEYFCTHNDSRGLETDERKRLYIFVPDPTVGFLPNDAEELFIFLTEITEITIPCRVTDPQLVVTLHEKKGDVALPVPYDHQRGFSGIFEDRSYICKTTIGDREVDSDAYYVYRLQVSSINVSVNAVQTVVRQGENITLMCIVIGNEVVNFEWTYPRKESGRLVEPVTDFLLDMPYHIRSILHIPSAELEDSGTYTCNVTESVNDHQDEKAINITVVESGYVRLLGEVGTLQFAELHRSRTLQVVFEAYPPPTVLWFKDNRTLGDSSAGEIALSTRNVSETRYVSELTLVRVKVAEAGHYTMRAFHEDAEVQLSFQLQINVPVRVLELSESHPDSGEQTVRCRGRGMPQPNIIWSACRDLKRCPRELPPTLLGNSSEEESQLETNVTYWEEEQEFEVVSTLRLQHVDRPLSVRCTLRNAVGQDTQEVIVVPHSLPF
# T3 sequence (P35968 20-764 limits assumed): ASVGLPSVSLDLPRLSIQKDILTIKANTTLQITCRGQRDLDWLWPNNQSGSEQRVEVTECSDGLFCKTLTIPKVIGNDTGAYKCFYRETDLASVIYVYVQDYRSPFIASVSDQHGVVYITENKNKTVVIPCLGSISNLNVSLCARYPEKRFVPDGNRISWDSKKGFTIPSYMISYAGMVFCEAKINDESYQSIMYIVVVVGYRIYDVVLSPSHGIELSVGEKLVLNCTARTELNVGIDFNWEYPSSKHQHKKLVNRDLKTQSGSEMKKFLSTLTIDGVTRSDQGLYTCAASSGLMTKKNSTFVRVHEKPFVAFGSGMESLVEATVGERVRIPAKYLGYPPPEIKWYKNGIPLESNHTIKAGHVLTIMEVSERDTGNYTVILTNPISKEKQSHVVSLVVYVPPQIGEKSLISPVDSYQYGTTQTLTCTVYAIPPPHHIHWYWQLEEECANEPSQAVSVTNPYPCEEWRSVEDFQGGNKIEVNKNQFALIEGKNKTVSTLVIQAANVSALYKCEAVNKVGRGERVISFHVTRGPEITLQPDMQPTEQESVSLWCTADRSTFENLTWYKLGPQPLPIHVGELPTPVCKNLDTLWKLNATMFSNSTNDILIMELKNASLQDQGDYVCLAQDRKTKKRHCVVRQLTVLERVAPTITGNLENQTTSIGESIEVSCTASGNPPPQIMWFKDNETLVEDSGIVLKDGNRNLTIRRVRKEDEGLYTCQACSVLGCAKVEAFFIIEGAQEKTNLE
# T4 sequence (P35968 20-764 limits assumed): as above
binder,measurement,setting,value
B1,binding result,mouse VEGF (PR-1578904),no binding
B2,IC50,[1],1.35 nM
same,IC50,[2],4.85 nM
B3,IC50,[3],0.498 nM
B4,binding result,[4],binds
